# Test: yeast display, Sf9 membrane polyspecificity reagent, FACS + sequencing; frameworks hold sequencing errors
# Procedure, shortened: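 Sorting gates, low and high (top ~1%), were placed on anti-HA fluorescence to track expression and on streptavidin fluorescence to track reagent binding. A clone's polyreactivity label is taken from the gate it came out of. The reagent was 10% biotinylated, detergent-solubilized Sf9 membrane, applied for 1 hour at 4 °C to galactose-induced yeast display cells.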
row,Sequence,polyreactivity (PSR sort gate)
1,QVQLVESGGGLVQAGGSLRLSCAASGFTFRIYAMGWYRQAPGKERELVATISWSGTSTYYADSVKGRFTISRDYAKNTVFFQMNSLNPEDTAVYYCAKDGVSFYWLNKYYYWGQGTQVTVSS,low polyreactivity
2,QVQLVESGGGLVQAGGSLRLSCAASGFTFRKNVMGWYRQATGKERELVAVISSSGGSTYYADSVKGRFTISRDNAKNTVYLPMNRLKPEVTAVYYCNAGRYGSNLEYWGQGTQLTVSS,low polyreactivity
3,QVQLVESGGGLVQAGGSLRLSCAASGFTFRKYAMGLYRQAPGKERELVASITSGGSTYYADSVKGRFTISRDNAKNTVYLQMNSLKPEDNAVYYCNAVKATLASGRLRGAYYYWGQGNQVTVSS,high polyreactivity
4,QVQLVESGGGLVQAGGSLRLSCAASGFTFRKYAMGWYRPAPGKERELVAGITSGGSTNYADSVKGRFTISRDNAKNTVYLQMNSLKPEDTSVYYCNAARYYAYIGDYWGQGTQVTVSS,high polyreactivity
5,QVQLVESGGGLVQAGGSLRLSCAASGFTFRLYVMGWYIQAPGKERELVAAISSRGGSTYYADSLKGRFTISRDNAKNTVNLQMNSLKPEDTAVYYCAADRPRGRETVDYWGQGTQVTVSS,high polyreactivity
6,QVQLVESGGGLVQAGGSLRLSCAASGFTFRNYAMGWYRQAPGKERELVAAISKSGGSTYYADSVKGRFTISRDNAKNTVYLQMNSLKPEDTAVYYCATDYLYVYGFEYYYWGQGTQVTVSS,high polyreactivity
7,QVQLVESGGGLVQAGGSLRLSCAASGFTFRNYAMGWYRQAPGKERELVAAISQSGGITYYADTVKGRFTISRDNAKNTVYLQMYSLKPEDTAVYYCAAERFPRSSKGYFRTYDYWGQGTQVTVSS,high polyreactivity
8,QVQLVESGGGLVQAGGSLRLSCAASGFTFRQYAMGWYRQAPGKERELVAAISSGGSTYYADSVKGRFTISRDNAKNTVYLQMNSLKPEDTAVYYCNAVARYYVAYDMYWGQGTQVTVSS,high polyreactivity
9,QVQLVESGGGLVQAGGSLRLSCAASGFTFRRNAMGWYRQAPGKERELVAAITYNGGTTYYADSVKGRFTISRDNAKNTVYLLMNSLKPEDTAVYYCNAPYGRQGYDYWGQGTQVTVSS,low polyreactivity
10,QVQLVESGGGLVQAGGSLRLSCAASGFTFRRYAMGGYRQAPGKERELVAAISANGGSTYYADSVKGRFTISRDNAKNTVYLQMNSLKPEDTAVYYCNARKYTQSIHYDYWGQGTQVTVSS,high polyreactivity
11,QVQLVESGGGLVQAGGSLRLSCAASGFTFRRYAMGWYRQAPGKERELVASISWTGGSTHYADSVKGRFTISRDNAKNTVYLQMNSLKPEDSAVYYSNTVWYYLRSFNIDHYYDYWGQGTQVTVSS,high polyreactivity
12,QVQLVESGGGLVQAGGSLRLSCAASGFTFRRYAMGWYRQAPGKEREMVAVINVSDGSTYYADSVKGRFTISRDNAKNTVYLQMNSLKPEDTAVYYCAAYLYNRPYQLPGYYDGYGYWGQGTQVTVSS,low polyreactivity
13,QVQLVESGGGLVQAGGSLRLSCAASGFTFRRYAMGWYRQAPGQDRELVAAISYRGGTYYADSVKGRFTISRDNAKNTVYLQMNSLKPEDTAVYYCNARYRGKYSSYGYWGQGTQVTVSS,high polyreactivity
14,QVQLVESGGGLVQAGGSLRLSCAASGFTFRRYTMGWYRQAPGKERELVAAISGSGGSTYYADSVKGRFTISRDNAKNTVYLQMNSLKPEDTAVYYCNAPYLHYVIVFTDYSQRYDYWGQGTQVTVSS,high polyreactivity
15,QVQLVESGGGLVQAGGSLRLSCAASGFTFRSNMGWYRQAPGKEREFVAAITKSGGSTYYADSVKGRFTISRDNAKNTVYLQMNSLKPEDTAVYYCATKVDTYVFRYYYWGQGTQVTVSS,high polyreactivity
16,QVQLVESGGGLVQAGGSLRLSCAASGFTFRSYAMGWYRQAPGKVRELVAAISLGGTSTYYADSVKGRFTISRDNAKNTVYLPMNSLKPEDTAVYYCAARSYGHYGYWGQGTQVTVSS,high polyreactivity
17,QVQLVESGGGLVQAGGSLRLSCAASGFTFRTNTMGWYRQAPGKERELVAAITYRGGRTYADSVKGRFTISRDNAKNTVYLQMNSLKPEDTAVYYCAARHYRGTAVDYWGQGTQVTVSS,high polyreactivity
18,QVQLVESGGGLVQAGGSLRLSCAASGFTFRTNVMGWYRQAPGKERELVAVITRDGGSTYYADSVKGRFTISRDNAKNTVYLQMNSLKPEDTAVYYCNAAAFINFILYDYWGQGTQVTVSS,high polyreactivity
19,QVQLVESGGGLVQAGGSLRLSCAASGFTFRTYAMGWSRQAPGKERELVAAITVSGGTYYADSVKGRFTISRDNAKNTVYLQMNSLKPEDTAVYYCAAGYWNDFDWGQGTQVTVSS,low polyreactivity
20,QVQLVESGGGLVQAGGSLRLSCAASGFTFRTYAMGWYRQAPGKERELVAAITGRGSNTYYADSVKGRFTISRDNAKNTVYLQMNSLKPEDTAVYYCNARYYDYRVALRYDYWGQGTQVTVSS,high polyreactivity
21,QVQLVESGGGLVQAGGSLRLSCAASGFTFRTYAMGWYRQAPGKERELVSAITGSGGRTYYADSVKGRFTISRDYAKNTVYLQMNSLKPEDTAVYYCAADYVVPWAFWTFRFDYWGQGTQVTVSS,low polyreactivity
22,QVQLVESGGGLVQAGGSLRLSCAASGFTFRVDAMGWYRQAPGKERELVAAISVRGDSTYYADSVKGRFTISRDNAKNTVYVQMNSLKPEDTAVYYSAAAVRTISRFTFYYWGQGTQVTVSS,high polyreactivity

row,Sequence,polyreactivity (PSR sort gate)
1,QVQLVESGGGLVQAGGSLRLSCAASGFTFRWYTMGWYRQAPGKERELFAAITGSGCTTYYADSVKGRFTISRDNAKNTVYLQMNSLKPEDTAVYYCAVVSGSLRTRYTYYYWGLGTQVTVSS,high polyreactivity
2,QVQLVESGGGLVQAGGSLRLSCAASGFTFRWYTMGWYRQAPGKERELVASIRYGGGSTYYADSVKGRFTISRDNAKNTVYLQMNSLKPEDTAVYYCAAESAWTSQYDYWGVGTQVTVSS,high polyreactivity
3,QVQLVESGGGLVQAGGSLRLSCAASGFTFRWYTMVWYRQAPGKERELVAAITGSGCTTYYADSVKGRFTISRDNAKNTVYLQMNSLKPEDTAVYYCAARTATSSPSWYEYWGQGTQVTVSS,high polyreactivity
4,QVQLVESGGGLVQAGGSLRLSCAASGFTFRYYAMGWYRQAHGKERELVASITGGGRTYYADSVKGRFTISRDNAKNTVYLQMNSLKPEDTAVYYCATLLAYRLGSGYDSWGQGTQVTVSS,high polyreactivity
5,QVQLVESGGGLVQAGGSLRLSCAASGFTFRYYAMGWYRQAPGKEREFVAAIRRSGANTYYADSVKGRFTISRDNAKNTVYLQMNSLKPEDTAVYYCAADKNYYPYKFDYWGQGTQVTVSS,high polyreactivity
6,QVQLVESGGGLVQAGGSLRLSCAASGFTFRYYAMGWYRQAPGKERELVAAINSGDSTNYADSVKGRFTISRDNAKNTVYLQMNSLKPEDTAVYYCATRLWKIPGAMYYWGQGTQVTVSS,high polyreactivity
7,QVQLVESGGGLVQAGGSLRLSCAASGFTFRYYAMGWYRQAPGKERELVAAISAGGGSTYYADSVKGRFTISRDNAKNTVYLQMNSLKPEDTAGYYCAAAGARPGYDYWGQGTQVTVSS,high polyreactivity
8,QVQLVESGGGLVQAGGSLRLSCAASGFTFRYYAMGWYRQAPGKERELVAAISARGTSTYYADSVKGRFTISRDNAKITVYLQMNSLKPEDTAVYYCAARYGLYPARGYDYWGQGTQVSVSS,high polyreactivity
9,QVQLVESGGGLVQAGGSLRLSCAASGFTFRYYAMGWYRQAPGKERELVAAISYNGGSTYYADSVKGRFTISRDNAKNTVYLQMNSLKPEDTAVYYCAADGGRRFGYWGQGTQVTVSS,high polyreactivity
10,QVQLVESGGGLVQAGGSLRLSCAASGFTFRYYAMGWYRQAPGKERELVAGISSRGGSTYYADSVKGRFTISRDNAKNTDYLQMNSLKTEDTAVYYCATERFLLGLGYDYWGQGTQVTVSS,high polyreactivity
11,QVQLVESGGGLVQAGGSLRLSCAASGFTFRYYAMGWYRQAPGKERELVASITGGGRTYYADSVKGRFTISRDNAKNTVYLQMNSLKPEDTAVYYCATLLAYRLGSGYDSWGQGTQVTVSS,high polyreactivity
12,QVQLVESGGGLVQAGGSLRLSCAASGFTFRYYVMGWYRQAPGNEREFVAAITWADGSTFYAVSVKGRFTISRDKAKNTDYLHMNSLKPEDTAVYYCAADYSRTYRAYDYWGQGTQVTVSS,low polyreactivity
13,QVQLVESGGGLVQAGGSLRLSCAASGFTFSDHAMGWYRQAPGKERELVAAISRSRGNTHYADSVKGRFTISRDNAKNTVYLQMNSLKPEDTAVYYCNAVQGQGQYEYWGQATQVTVSS,high polyreactivity
14,QVQLVESGGGLVQAGGSLRLSCAASGFTFSDNAMVWYRQAPGKERELVAAISEGSGITYYADSVKGRFTISRDNAKNTVTLQMNSLKPEDNAVYYCAADWLSKYDYWGQGTQVTVSS,low polyreactivity
15,QVQLVESGGGLVQAGGSLRLSCAASGFTFSFYAMGWYIQAPGKERELVAVISKSGGRTYYADSVKGRFTISRDNAKNTVYLQMNSLKPEDTAVYYCAAKRTSTRIYTFEYWGQGTQVTVSS,high polyreactivity
16,QVQLVESGGGLVQAGGSLRLSCAASGFTFSFYAMGWYRQAPGKERELVAAISSGGRTSYADSVKGRFTISRDNAKNTVYLQMNSLKPEDTAVYYCAASYPGRYWLYRYEYWGQGTQVTVSS,high polyreactivity
17,QVQLVESGGGLVQAGGSLRLSCAASGFTFSFYAMGWYRQAPGKERELVAAITWSGGNTYYADSVKGRFTISRDNAKNTVDLQMNSLKPEDTAVYYCAARGPASVRYYYWGQGTQVTVSS,high polyreactivity
18,QVQLVESGGGLVQAGGSLRLSCAASGFTFSFYAMGWYRQAPGKERELVAGISKRGGSTYYADSVKGRFTISRDNAKKTVFLQMNSLKPEDTAVYYCARSYYTNGNALKRDYWGQGTQVTVSS,high polyreactivity
19,QVQLVESGGGLVQAGGSLRLSCAASGFTFSFYAMGWYRQAPGKERELVATISSGGSTTYADSVKGRFTISRDNAKNTVYLQMNSLKPEDTEVYYCAARYGRVRNYRYDYWGQGTQVTVSS,high polyreactivity
20,QVQLVESGGGLVQAGGSLRLSCAASGFTFSFYAMGWYRQAPGKERELVATISSGGSTTYAVSVKGRFTISRDNAKNTVYLQMNSLKPEDTAVYYCNARPGQSGARFGYWGQGTQVTVSS,high polyreactivity
21,QVQLVESGGGLVQAGGSLRLSCAASGFTFSFYTMGWYRQAPGKERELVAAISTSGSTYYADSVKGRFTISRDNAKNTVYLQMNSLKPEDTAVYYCAAGRWWRYFTWHGYWGQGTQVTVSS,high polyreactivity
